For experiment [1], the target named is Munc13L with C-terminal Halo tag (Munc13-1 residues 529-1735, C1-C2B-MUN-C2C domains, residues 1408-1452 replaced by EF) (UniProt Q62768). The experiment can be described thus: two-colour step-bleaching of co-clusters on a supported lipid bilayer.
Experiment [2] has the same target. The experiment can be described thus: two-colour TIRF co-localisation on a supported lipid bilayer.

In the case of “single-cysteine (S28C) version of SNAP25^WT labeled with AlexaFluor555 (from UniProt P60879 1-206) (natural protein)”, in experiment [1], the stoichiometry N (mole SNAP25/mole Munc13L) worked out at 0.8. Besides, in experiment [2], the Manders' coefficient (SNAP25:Munc13L) at 50 nM Munc13L worked out at 0.2, the Manders' coefficient (SNAP25:Munc13L) at 1 μM Munc13L amounted to 0.6 and the Manders' coefficient at 1 μM Munc13L was found to be 0.7.

The values above are taken from article PMC8068094.
